Assay results published in patent US7732178B2, “Laccase enzymes and their uses” (AB Enzymes Oy, priority 2004, dated 2010).

B1: TaLcc3: Thielavia arenaria ALKO 4197 laccase, SEQ ID NO: 43, produced in Trichoderma reesei (protein)
chain: MVCLQYQLTAACFAVLAVVTTPASCSPVQPSPVHDLLPRQTIIPGGKPCGQNNATNRGCWKNNWNITTDYEVDTPPAFNTRVYDLHITNVTNWLGPDGVRKPAMLINGSFPGPTISADWGDYIIVNVHNDMQDNGTSIHWHGIRQLGESNQDGANGVTECPIPPGSSKTYDFHVTQYGTSWYHSHYSNQYGNGVVGALIVRGPASANYDIDLGPYLISDYYYETADRLHLRAELVSNGPPPDSDNILFRGKNINPKRAGSGSYDRLVLTPGKKHLIRLINASVDNSFVISLVGHNFTVISTDMVPITPVVRSSLFMGVGQRYDVIVEANQPVGNYWLNATLEAQNNCGHSVNPFPAAIVQYEGASSTALPTNRGTPLTATCNGEKGFSPIVKRTVSSSLFQPSTLPVSLEFPTTDRGQVFEWRVKNTPISVEWEHPVLEYILQGNTSFPAKANLIEVPQANVWTFWVIQNGFGLPHPIHLHGHDFLVLGVGNGTFDAASMRGLLNFNNPVRRDVEQMPGNGWLVIAFKTDNPGCWLMHCHIGWHVAMGLGIQFLERRSDILALMKLDQMVPNCEAWRAYARTSPYLPKLDSGLKRGVEMREGMEPAVRRIG
modifications: Thielavia arenaria ALKO4197; (1)..(611) Deduced amino acid sequence of Thielavia arenaria LAKO4197 TaLcc3
B2: MaL: well-known fungal laccase from Melanocarpus albomyces (protein, UniProt Q70KY3 51-609, looked up)
Laccase-1: EPTCNTPSNRACWSDGFDINTDYEVSTPDTGVTQSYVFNLTEVDNWMGPDGVVKEKVMLINGNIMGPNIVANWGDTVEVTVINNLVTNGTSIHWHGIHQKDTNLHDGANGVTECPIPPKGGQRTYRWRARQYGTSWYHSHFSAQYGNGVVGTIQINGPASLPYDIDLGVFPITDYYYRAADDLVHFTQNNAPPFSDNVLINGTAVNPNTGEGQYANVTLTPGKRHRLRILNTSTENHFQVSLVNHTMTVIAADMVPVNAMTVDSLFLAVGQRYDVVIDASRAPDNYWFNVTFGGQAACGGSLNPHPAAIFHYAGAPGGLPTDEGTPPVDHQCLDTLDVRPVVPRSVPVNSFVKRPDNTLPVALDLTGTPLFVWKVNGSDINVDWGKPIIDYILTGNTSYPVSDNIVQVDAVDQWTYWLIENDPEGPFSLPHPMHLHGHDFLVLGRSPDVPAASQQRFVFDPAVDLARLNGDNPPRRDTTMLPAGGWLLLAFRTDNPGAWLFHCHIAWHVSGGLSVDFLERPADLRQRISQEDEDDFNRVCDEWRAYWPTNPYPKIDSGL

Key:
[1] = Specific activity towards ABTS; type: biochemical; settings: 25 mM succinate buffer pH 4.5, 25° C.
Protocol: The activity assay was carried out in accordance with the method developed by Niku-Paavola et al. (1988). The sample was diluted with 0.025 M succinate buffer, pH 4.5. […] The activity is expressed as nano katals.
(§1) Specific activities of the purified T. arenaria and C. thermophilum laccases were determined towards different laccase substrates.

[2] = Specific activity towards di-methoxy-phenol (DMP); type: biochemical; settings: 25 mM MES buffer, pH 5.5
Protocol: as §1

[3] = Specific activity towards syringaldazine; type: biochemical; settings: 25 mM MES buffer, pH 5.5
Protocol: as §1

[4] = Specific activity towards guaiacol; type: biochemical; settings: 25 mM MES buffer, pH 5.5
Protocol: as §1

[5] = Isoelectric focusing (pI); type: physicochemical; settings: pH range 3-9
Protocol: Molecular weight of the T. arenaria and C. thermophilum laccases were determined on SDS-PAGE according to Laemmli (1970) The gels used in the SDS-PAGE analysis were ready-made 12% Tris HCl gels (BioRad). Protein bands were visualized by staining with Coomassie Brilliant Blue (R 350; Pharmacia) and compared with molecular weight markers (Prestained Protein Marker Broad Range #7708S; New England BioLabs, Beverly, Mass.). The molecular weight of the both laccases was approximately 80 kDa. The isoelectric point of the laccases was determined with isoelectric focusing within the pH range of 3-9 (Pharmalyte IEF, Pharmacia) on a LKB 2117 Multiphor II Electrophoresis System (LKB Pharmacia, Bromma, Sweden) according to the manufacturer's instructions.
The purified recombinant Thielavia and Chaetomium laccases were characterized in terms of pH optimum, thermal stability, and pI as described in Example 2. The molecular weight was determined by MALDI-TOF mass spectrometry on a Ultraflex™ time-of-flight instrument (BrukerDaltonics, Germany) as previously described (Palonen et al., 2003). The redox-potentials of the T1 coppers of for CtLcc, and TaLcc2 laccases were determined by photometric copper titration in 0.1 M KH2PO4 (pH 6.0) as described by Xu et al. (1996) using the redox titrant couple K3Fe(CN)6/K4Fe(CN)6. The redox potential of TaLcc1 was determined with a combined Pt—AgCl/KCl microelectrode at pH 5.0 according to Sigoillot et al (2004). The characterization results are collected to Table 14.

Row | Molecule | Specific activity on ABTS [1] | Specific activity on DMP [2] | Specific activity on syringaldazin [3] | Specific activity on guaiacol [4] | pI [5]
1 | B1 | 8.3 nkat/mg | 2.1 nkat/mg | 3.6 nkat/mg | 0 nkat/mg | 7.0-8.0
2 | B2 | 840 nkat/mg | 290 nkat/mg | 380 nkat/mg | 90 nkat/mg | 
